Biological target: lysozyme (Lys) (UniProt P00698 19-147)
Assay: competition

B1: Anti-Lys aptamer / Competitor 3 probe (mixed)
DNA 1: ATCAGGGCTAAAGAGTGCAGAGTTACTTAG
DNA 2: ATCAGGGCACTCTTTAGCCCTGAT
modifications: 5' and 3' pyrene via (CH2)6 on strand 2
B1: binds.

From publication PMC3005583
